Laboratory results from US12617863 (CCOA THERAPEUTICS, dated 2026).
Changes are numbered by the printed parent chain.

T1: mouse platelet glycoprotein I(b)α (GPIbα) on wild-type mouse platelets (mouse, UniProt O35930 17-734)
T1 construct: whole, on cells; also called mouse GPIbα
T1 sequence (looked up): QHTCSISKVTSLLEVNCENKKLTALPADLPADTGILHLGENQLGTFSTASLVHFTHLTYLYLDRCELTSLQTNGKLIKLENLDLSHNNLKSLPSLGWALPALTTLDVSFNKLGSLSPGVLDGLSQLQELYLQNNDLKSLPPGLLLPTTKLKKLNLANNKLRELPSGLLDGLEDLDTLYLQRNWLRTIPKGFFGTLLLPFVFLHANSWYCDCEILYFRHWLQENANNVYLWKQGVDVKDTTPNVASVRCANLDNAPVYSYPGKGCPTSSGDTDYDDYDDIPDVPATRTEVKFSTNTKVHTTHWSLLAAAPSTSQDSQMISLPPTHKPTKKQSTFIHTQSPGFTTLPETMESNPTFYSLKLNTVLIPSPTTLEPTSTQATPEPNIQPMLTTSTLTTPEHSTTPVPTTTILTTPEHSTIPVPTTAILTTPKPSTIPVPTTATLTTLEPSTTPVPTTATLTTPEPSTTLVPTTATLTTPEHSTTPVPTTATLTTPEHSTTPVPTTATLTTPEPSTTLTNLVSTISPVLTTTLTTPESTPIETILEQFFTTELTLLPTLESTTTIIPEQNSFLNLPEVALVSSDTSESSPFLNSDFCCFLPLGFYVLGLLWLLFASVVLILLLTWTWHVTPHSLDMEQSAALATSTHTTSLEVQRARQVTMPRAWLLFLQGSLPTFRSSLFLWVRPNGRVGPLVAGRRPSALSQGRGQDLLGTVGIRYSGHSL

T2: dog platelet glycoprotein I(b)α (GPIbα) on dog platelets (dog, UniProt Q28256 17-677)
T2 construct: whole, on cells; also called dog GPIbα
T2 sequence (looked up): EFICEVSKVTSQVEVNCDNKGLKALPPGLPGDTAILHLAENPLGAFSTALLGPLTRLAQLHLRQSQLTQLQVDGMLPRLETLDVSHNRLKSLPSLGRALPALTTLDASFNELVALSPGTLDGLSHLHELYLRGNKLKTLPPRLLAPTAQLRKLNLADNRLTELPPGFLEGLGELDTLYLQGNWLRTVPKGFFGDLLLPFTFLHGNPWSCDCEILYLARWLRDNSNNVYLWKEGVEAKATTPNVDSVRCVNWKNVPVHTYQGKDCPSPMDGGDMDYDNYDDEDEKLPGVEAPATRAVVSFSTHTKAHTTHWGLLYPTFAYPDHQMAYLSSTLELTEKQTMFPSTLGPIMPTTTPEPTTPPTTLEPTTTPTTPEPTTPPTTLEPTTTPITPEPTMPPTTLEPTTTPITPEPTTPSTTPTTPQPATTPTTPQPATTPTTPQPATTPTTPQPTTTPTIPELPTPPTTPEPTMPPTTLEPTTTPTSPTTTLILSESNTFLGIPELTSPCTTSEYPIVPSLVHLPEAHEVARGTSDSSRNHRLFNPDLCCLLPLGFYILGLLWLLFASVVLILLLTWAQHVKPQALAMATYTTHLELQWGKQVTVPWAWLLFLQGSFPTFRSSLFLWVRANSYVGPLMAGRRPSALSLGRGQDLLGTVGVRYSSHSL

B1: humanized Fab H004 (Fab, V domains shown)
VH: EVQLVESGGGLVQPGGSLRLSCAASGFTFSSFAMSWVRQAPGKGLEWVSSITSAGTPYYPDSVLGRFTISRDNSKNTLYLQMNSLRAEDTAVYYCAKSRGYEDYFDYWGQGTLVTVSS
VL: DIQMTQSPSSLSASVGDRVTITCKSSQSLLNSRNQKNYLAWYQQKPGKAPKLLIYFTSTRESGVPSRFSGSGSGTDFTLTISSLQPEDFATYYCQQHYSSPWTFGQGTKVEIKR
notes: Fab with human IgG1 CH1 and human kappa constant region; also called VH3 + VL2
B2: humanized Fab H003 (Fab, V domains shown)
VH: B1 VH with Q13K, S74A, T77S, K97R, L113T, S118R
VL: DIVMTQSPDSLAVSLGERATINCKSSQSLLNSRNQKNYLAWYQQKPGQPPKLLIYFTSTRESGVPDRFSGSGSGTDFTLTISSLQAEDVAVYYCQQHYSSPWTFGGGTKLEIKR
notes: Fab with human IgG1 CH1 and human kappa constant region; also called VH2 + VL1
B3: humanized Fab H005 (Fab, V domains shown)
VH: B1 VH
VL: DIVMTQSPLSLPVTPGEPASISCKSSQSLLNSRNQKNYLAWYLQKPGQSPQLLIYFTSTRESGVPDRFSGSGSGTDFTLKISRVEAEDVGVYYCQQHYSSPWTFGQGTKVEIKR
notes: Fab with human IgG1 CH1 and human kappa constant region; also called VH3 + VL3
B4: humanized Fab H008 (Fab, V domains shown)
VH: B1 VH with E1Q, L11V, G16R, S49A, K97R
VL: B3 VL
notes: Fab with human IgG1 CH1 and human kappa constant region; also called VH4 + VL3
B5: humanized Fab H006 (Fab, V domains shown)
VH: B1 VH with E1Q, L11V, G16R, S49A, K97R
VL: B2 VL
notes: Fab with human IgG1 CH1 and human kappa constant region; also called VH4 + VL1
B6: humanized Fab H002 (Fab, V domains shown)
VH: B1 VH with E1Q, Q13K, V37I, S74A, T77S, K97R
VL: B3 VL
notes: Fab with human IgG1 CH1 and human kappa constant region; also called Fab H002 antibody; VH1 + VL3
B7: humanized Fab H001 (Fab, V domains shown)
VH: B1 VH with E1Q, Q13K, V37I, S74A, T77S, K97R
VL: B1 VL
notes: Fab with human IgG1 CH1 and human kappa constant region; also called Fab H001 antibody; VH1 + VL2
B8: humanized Fab H007 (Fab, V domains shown)
VH: B1 VH with E1Q, L11V, G16R, S49A, K97R
VL: B1 VL
notes: Fab with human IgG1 CH1 and human kappa constant region; also called VH4 + VL2

How the values were obtained:
[1] = target: T1, mouse platelet glycoprotein I(b)α …; experiment: flow cytometry, washed wild-type mouse platelets, Fab 5 µg/mL, FITC anti-human-Fab detection
Experimental: (§1) Specificity. Human and mouse platelet-rich plasma (PRP) was prepared by centrifugation at 300 g for 7 min, and was washed by transferring 200 µL PRP into 10 mL PBS followed with 800 g centrifugation for 10 min. The supernatant was then removed and platelets were re-suspended in 200 µL PBS. Washed platelets (10 µL) were incubated with the different antibodies (2.5-5 µg/mL) in a 200 µL system at room temperature for 30 min, and detected by FITC labeled anti-human-Fab antibody. These eight selected humanized Fabs H001-H008, the scFv and the chimeric protein all bound to both human and wild-type mouse platelets, but not GPIbα deficient mouse platelets, indicating the specificity of the humanized Fabs to platelet GPIbα (FIGS. 4 and 19).

[2] = target: T3, human platelet glycoprotein I(b)α (GPIbα) on human platelets (human, UniProt P07359 17-652); experiment: flow cytometry on washed platelets, 2.5-5 µg/mL, FITC anti-human-Fab detection
T3 construct: whole, on cells; also called human GPIbα
T3 sequence (P07359 17-652): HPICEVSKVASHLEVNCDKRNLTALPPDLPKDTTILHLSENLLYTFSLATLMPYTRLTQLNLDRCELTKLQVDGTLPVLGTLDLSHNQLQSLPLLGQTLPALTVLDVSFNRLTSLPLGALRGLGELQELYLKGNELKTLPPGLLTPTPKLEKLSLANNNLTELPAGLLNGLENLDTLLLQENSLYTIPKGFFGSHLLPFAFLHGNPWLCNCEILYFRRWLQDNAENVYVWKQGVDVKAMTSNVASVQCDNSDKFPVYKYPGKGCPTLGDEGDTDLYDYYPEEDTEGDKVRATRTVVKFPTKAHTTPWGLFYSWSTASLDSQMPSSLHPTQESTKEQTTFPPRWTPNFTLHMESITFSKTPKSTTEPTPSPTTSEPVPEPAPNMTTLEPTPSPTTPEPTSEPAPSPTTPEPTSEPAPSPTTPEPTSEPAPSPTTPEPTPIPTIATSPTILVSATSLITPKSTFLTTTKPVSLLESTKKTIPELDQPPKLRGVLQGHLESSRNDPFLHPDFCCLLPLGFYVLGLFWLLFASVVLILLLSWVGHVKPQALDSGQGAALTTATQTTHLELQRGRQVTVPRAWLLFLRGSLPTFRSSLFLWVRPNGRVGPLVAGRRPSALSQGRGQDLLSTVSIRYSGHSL
Experimental: as §1

[3] = target: T1, mouse platelet glycoprotein I(b)α …; experiment: flow cytometry, mouse platelets from PRP, FITC anti-human kappa chain detection
Experimental: (§2) Platelets (2×10^5) from mouse, dog, human, rat and rabbit PRP were transferred into 200 µL PBS containing a serial concentration of the Fabs H001 or H002 at 50, 16.7, 5.6, 1.8, 0.6, 0.2 nM (for mouse and dog), at 200, 67, 22, 7.4, 2.5, 0.8, 0.3, 0.1 nM (for human and rat) and at 500, 100, 20, 4, 0.8 nM (for rabbit). After a 30 min incubation, a detection antibody (FITC-labeled anti-human Kappa chain, 1:200) was added and incubated in darkness for 15 min. Flow cytometry was performed using the BD LSR Fortessa™ X-20. H001 and H002 also bound to rat, dog and rabbit platelets (FIG. 5).

[4] = target: T2, dog platelet glycoprotein I(b)α (GPIbα) …; experiment: flow cytometry, dog platelets from PRP, FITC anti-human kappa chain detection
Experimental: as §2

[5] = target: T4, rat platelet glycoprotein I(b)α (GPIbα) on rat platelets (rat); experiment: flow cytometry, rat platelets from PRP, FITC anti-human kappa chain detection
T4 construct: whole, on cells; also called rat GPIbα
Experimental: as §2

[6] = target: T3, human platelet glycoprotein I(b)α …; experiment: flow cytometry, human platelets from PRP, FITC anti-human kappa chain detection
Experimental: as §2

[7] = target: T5, recombinant hexa-histidine tagged GPIbα; experiment: SPR, His-tagged GPIbα held on Ni-NTA sensor, kinetics binding model
T5 construct: Held on a Ni-NTA SPR sensor by its hexa-histidine tag; also called recombinant GPIbα; immobilized GPIbα
T5 sequence (P07359 17-652): as above
Experimental: (§3) The biosensors were rinsed with copious amounts of anhydrous ethanol followed by 16 hour incubation in a solution of 1 mM mercaptopropionic acid in dimethylformamide. Following the incubation, SPR biosensors were rinsed with copious amounts of dimethylformamide followed by anhydrous ethanol and finally ddH₂O. The biosensors were then incubated in 40 mM 1-Ethyl-3-(3-dimethylaminopropyl) carbodiimide and 20 mM N-Hydroxysuccinimide dissolved in ddH₂O for 1 hour. Sensors were then rinsed with copious amounts of ddH₂O and then incubated with 100 mM Nα,Nα-Bis(carboxymethyl)-L-lysine hydrate for 4 hour. Following the incubation, the biosensing surfaces were rinsed with ddH2O. The final step before SPR experiments was to expose the functionalized biosensing surfaces with 100 mM NiCl₂ for 1 hour.
(§4) The SPR experiments were performed on a Biosensing Instrument 4000 SPR. The functionalized biosensors were loaded onto the instrument and the biosensor was equilibrated with running buffer (10 mM tris(hydroxymethyl) aminomethane, 140 mM NaCl, 20 mM Imidazole pH=7.4) at a flow rate of 40 μL/min. For binding measurements 25 μL of 500 nM hexa-histidine tagged GPIbα was injected over the biosensing surface immobilizing the GPIbα to the SPR sensor surface. […] The resulting data was analyzed using the instrument included SPR analysis software. […]

[8] = target: T5, recombinant hexa-histidine tagged GPIbα; experiment: SPR steady-state response against H001 concentration, His-tagged GPIbα immobilised
Experimental: as §3, §4

[9] = target: T5, recombinant hexa-histidine tagged GPIbα; experiment: SPR, size of shifts against concentration, one site binding model
Experimental: The SPR experiments were performed on a Biosensing Instrument 4000 SPR. The functionalized biosensors were loaded onto the instrument and the biosensor was equilibrated with running buffer (10 mM tris(hydroxymethyl) aminomethane, 140 mM NaCl, 20 mM Imidazole pH=7.4) at a flow rate of 40 μL/min. For binding measurements 25 μL of 500 nM hexa-histidine tagged GPIbα was injected over the biosensing surface immobilizing the GPIbα to the SPR sensor surface. The baseline was allowed to equilibrate followed by injection of 25 μL of the desired concentration of ligand (either Fab H001 or control). Biosensing surfaces were regenerated between ligand injections by injection of 100 μL of 500 mM imidazole in running buffer, followed by 100 μL of 100 mM NiCl_2. The resulting data was analyzed using the instrument included SPR analysis software.
GPIbα immobilized SPR biosensors were exposed to 500, 100, 50 and 10 nM of Fab H001 antibody and 100 nM control antibody (PSI E1, an antibody against GPIIbIIIa). […] In contrast the Fab H001 antibody clearly bound GPIbα producing clear SPR shifts with only partial dissociation after the end of the injection (FIG. 7A).

Row | Binder | binding result [1] | binding result [2] | also measured
1 | B1 | binds | binds | –
2 | B2 | binds | binds | –
3 | B3 | binds | binds | –
4 | B4 | binds | binds | –
5 | B5 | binds | binds | –
6 | B6 | – | – | binding result [3]: binds; EC50 (read off the curve) [4]: ~2 nM; EC50 (read off the curve) [5]: ~3 nM; binding result [6]: binds
7 | B7 | binds | – | Kd [7]: 4.4 nM; koff [7]: 0.11 s⁻¹; EC50 (read off the curve) [4]: ~3 nM; EC50 (read off the curve) [5]: ~3 nM; EC50 (read off the curve) [6]: ~10 nM; EC50 (read off the curve) [8]: ~80 nM; Kd [9]: 8 nM
8 | B8 | binds | binds | –
